# Laboratory results published in patent US12295987B2, “Method of using a GIP/GLP1 co-agonist for diabetes” (Eli Lilly and Company, priority 2018, dated 2025).
# Target: T1, human gastric inhibitory peptide receptor (hGIPR) (Homo sapiens, UniProt P48546)
# T1 construct: expressed in transfected cells; host or cells: HEK293
# T1 sequence (P48546 22-466): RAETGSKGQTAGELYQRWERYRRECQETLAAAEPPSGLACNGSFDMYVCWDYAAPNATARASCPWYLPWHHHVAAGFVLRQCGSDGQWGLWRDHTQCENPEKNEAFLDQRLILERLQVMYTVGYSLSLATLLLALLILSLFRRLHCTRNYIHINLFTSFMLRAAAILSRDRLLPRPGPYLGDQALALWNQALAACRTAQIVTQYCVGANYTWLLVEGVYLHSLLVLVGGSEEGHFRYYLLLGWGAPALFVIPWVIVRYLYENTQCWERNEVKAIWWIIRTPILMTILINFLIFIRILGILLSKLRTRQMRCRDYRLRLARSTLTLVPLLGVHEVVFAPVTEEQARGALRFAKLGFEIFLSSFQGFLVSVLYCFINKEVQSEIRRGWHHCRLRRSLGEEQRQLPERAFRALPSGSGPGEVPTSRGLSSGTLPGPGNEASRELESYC
# Assay: cAMP pharmacological functional assay in presence of 0.1% casein, hGIPR
# Type: cell-based
# Conditions: ratio of hGIPR to hGLP1R cAMP EC50 ratios
row,Substance,[hGIPR/hGLP1R] EC50 Ratio
1,"Y-Aib-EGT-αMeF(2F)-TSDYSI-αMeL-LDEK((2-[2-(2-Amino-ethoxy)-ethoxy]-acetyl)2-(γGlu)-CO—(CH2)18—CO2H)AQ-Aib-EFIAYLIEGGPSSGAPPPS-NH2 (YXEGTXTSDYSIXLDEKAQXEFIAYLIEGGPSSGAPPPS; Aib, αMeF(2F), αMeL; acylated lysine C20 diacid; amide; (2)..(2) Xaa at position 2 is Aib; (6)..(6) Xaa at position 6 is alpha-methyl-Phe(2F); (13)..(13) Xaa at position 13 is alpha-methyl-Leu; MOD_RES (17)..(17) Lys at position 17 is chemically modified by conjugation of the epsilon-amino group of the Lys side chain with (2-[2-(2-amino-ethoxy)-ethoxy]-acetyl)2-(gamma-Glu)-CO-(CH2)18- CO2H; (20)..(20) Xaa at position 20 is Aib; MOD_RES (39)..(39) Ser a) [Peptide 148]",3.14
2,"Y-Aib-EGT-αMeF(2F)-TSDYSI-αMeL-LDEK((2-[2-(2-Amino-ethoxy)-ethoxy]-acetyl)2-(γGlu)-CO—(CH2)18—CO2H)AQ-Aib-EFIE-αMeY-LIEGGPSSGAPPPS-NH2 (YXEGTXTSDYSIXLDEKAQXEFIEXLIEGGPSSGAPPPS; Aib, αMeF(2F), αMeL, αMeY; lipidated K; amide; (2)..(2) Xaa at position 2 is Aib; (6)..(6) Xaa at position 6 is alpha-methyl-Phe(2F); (13)..(13) Xaa at position 13 is alpha-methyl-Leu; MOD_RES (17)..(17) Lys at position 17 is chemically modified by conjugation of the epsilon-amino group of the Lys side chain with (2-[2-(2-amino-ethoxy)-ethoxy]-acetyl)2-(gamma-Glu)-CO-(CH2)18- CO2H; (20)..(20) Xaa at position 20 is Aib; (25)..(25) Xaa at positi) [Peptide 223]",3.05
3,"Y-Aib-EGT-αMeF(2F)-TSDYSI-αMeL-LDEK((2-[2-(2-Amino-ethoxy)-ethoxy]-acetyl)2-(γGlu)-CO—(CH2)18—CO2H)AQ-Aib-EFIEYLIEGG-NH2 (YXEGTXTSDYSIXLDEKAQXEFIEYLIEGG; Aib, αMe residues, C20 diacid lipidation, C-amide; (2)..(2) Xaa at position 2 is Aib; (6)..(6) Xaa at position 6 is alpha-methyl-Phe(2F); (13)..(13) Xaa at position 13 is alpha-methyl-Leu; MOD_RES (17)..(17) Lys at position 17 is chemically modified by conjugation of the epsilon-amino group of the Lys side chain with (2-[2-(2-amino-ethoxy)-ethoxy]-acetyl)2-(gamma-Glu)-CO-(CH2)18- CO2H; (20)..(20) Xaa at position 20 is Aib; MOD_RES (30)..(30) Gly a) [Peptide 103]",3.07
4,"Y-Aib-EGT-αMeF(2F)-TSDYSI-αMeL-LDEK((2-[2-(2-Amino-ethoxy)-ethoxy]-acetyl)2-(γGlu)-CO—(CH2)18—CO2H)AQ-Aib-EFIEYLIEGGPSSGAPPPS-NH2 (YXEGTXTSDYSIXLDEKAQXEFIEYLIEGGPSSGAPPPS; Aib, αMeF(2F), αMeL; acylated lysine C20 diacid; amide; (2)..(2) Xaa at position 2 is Aib; (6)..(6) Xaa at position 6 is alpha-methyl-Phe(2F); (13)..(13) Xaa at position 13 is alpha-methyl-Leu; MOD_RES (17)..(17) Lys at position 17 is chemically modified by conjugation of the epsilon-amino group of the Lys side chain with (2-[2-(2-amino-ethoxy)-ethoxy]-acetyl)2-(gamma-Glu)-CO-(CH2)18- CO2H; (20)..(20) Xaa at position 20 is Aib; MOD_RES (39)..(39) Ser a) [Peptide 118]",3.03
5,"Y-Aib-EGT-αMeF(2F)-TSDYSI-αMeL-LDEK((2-[2-(2-Amino-ethoxy)-ethoxy]-acetyl)2-(γGlu)-CO—(CH2)18—CO2H)AQ-Aib-EFIHYLIEGGPSSGAPPPS-NH2 (YXEGTXTSDYSIXLDEKAQXEFIHYLIEGGPSSGAPPPS; Aib, αMeF(2F), αMeL; acylated lysine C20 diacid; amide; (2)..(2) Xaa at position 2 is Aib; (6)..(6) Xaa at position 6 is alpha-methyl-Phe(2F); (13)..(13) Xaa at position 13 is alpha-methyl-Leu; MOD_RES (17)..(17) Lys at position 17 is chemically modified by conjugation of the epsilon-amino group of the Lys side chain with (2-[2-(2-amino-ethoxy)-ethoxy]-acetyl)2-(gamma-Glu)-CO-(CH2)18- CO2H; (20)..(20) Xaa at position 20 is Aib; MOD_RES (39)..(39) Ser a) [Peptide 153]",3.39
6,"Y-Aib-EGT-αMeF(2F)-TSDYSI-αMeL-LDEK((2-[2-(2-Amino-ethoxy)-ethoxy]-acetyl)2-(γGlu)-CO—(CH2)18—CO2H)AQ-Aib-EFIPYLIEGGPSSGAPPPS-NH2 (YXEGTXTSDYSIXLDEKAQXEFIPYLIEGGPSSGAPPPS; Aib, αMeF(2F), αMeL; acylated lysine C20 diacid; amide; (2)..(2) Xaa at position 2 is Aib; (6)..(6) Xaa at position 6 is alpha-methyl-Phe(2F); (13)..(13) Xaa at position 13 is alpha-methyl-Leu; MOD_RES (17)..(17) Lys at position 17 is chemically modified by conjugation of the epsilon-amino group of the Lys side chain with (2-[2-(2-amino-ethoxy)-ethoxy]-acetyl)2-(gamma-Glu)-CO-(CH2)18- CO2H; (20)..(20) Xaa at position 20 is Aib; MOD_RES (39)..(39) Ser a) [Peptide 151]",9.42
7,"Y-Aib-EGT-αMeF(2F)-TSDYSI-αMeL-LDEK((2-[2-(2-Amino-ethoxy)-ethoxy]-acetyl)2-(γGlu)-CO—(CH2)18—CO2H)AQ-Aib-EFISYLIEGGPSSGAPPPS-NH2 (YXEGTXTSDYSIXLDEKAQXEFISYLIEGGPSSGAPPPS; Aib, αMeF(2F), αMeL; acylated lysine C20 diacid; amide; (2)..(2) Xaa at position 2 is Aib; (6)..(6) Xaa at position 6 is alpha-methyl-Phe(2F); (13)..(13) Xaa at position 13 is alpha-methyl-Leu; MOD_RES (17)..(17) Lys at position 17 is chemically modified by conjugation of the epsilon-amino group of the Lys side chain with (2-[2-(2-amino-ethoxy)-ethoxy]-acetyl)2-(gamma-Glu)-CO-(CH2)18- CO2H; (20)..(20) Xaa at position 20 is Aib; MOD_RES (39)..(39) Ser a) [Peptide 150]",3.34
8,"Y-Aib-EGT-αMeF(2F)-TSDYSI-αMeL-LDEK((2-[2-(2-Amino-ethoxy)-ethoxy]-acetyl)2-(γGlu)-CO—(CH2)18—CO2H)AQ-Aib-EFIVYLIEGGPSSGAPPPS-NH2 (YXEGTXTSDYSIXLDEKAQXEFIVYLIEGGPSSGAPPPS; Aib, αMeF(2F), αMeL; acylated lysine C20 diacid; amide; (2)..(2) Xaa at position 2 is Aib; (6)..(6) Xaa at position 6 is alpha-methyl-Phe(2F); (13)..(13) Xaa at position 13 is alpha-methyl-Leu; MOD_RES (17)..(17) Lys at position 17 is chemically modified by conjugation of the epsilon-amino group of the Lys side chain with (2-[2-(2-amino-ethoxy)-ethoxy]-acetyl)2-(gamma-Glu)-CO-(CH2)18- CO2H; (20)..(20) Xaa at position 20 is Aib; MOD_RES (39)..(39) Ser a) [Peptide 149]",3.76
9,"Y-Aib-EGT-αMeF(2F)-TSDYSI-αMeL-LDEK((2-[2-(2-Amino-ethoxy)-ethoxy]-acetyl)2-(εK)-CO—(CH2)18—CO2H)AQ-Aib-EFI-(D-Glu)-YLIEGGPSSGAPPPS-NH2 (YXEGTXTSDYSIXLDEKAQXEFIXYLIEGGPSSGAPPPS; Aib, αMeF(2F), αMeL, D-Glu; εK-lipidated K; amide; (2)..(2) Xaa at position 2 is Aib; (6)..(6) Xaa at position 6 is alpha-methyl-Phe(2F); (13)..(13) Xaa at position 13 is alpha-methyl-Leu; MOD_RES (17)..(17) Lys at position 17 is chemically modified by conjugation of the epsilon-amino group of the Lys side chain with (2-[2-(2-amino-ethoxy)-ethoxy]-acetyl)2-(epsilon-Lys)-CO-(CH2)18- CO2H; (20)..(20) Xaa at position 20 is Aib; (24)..(24) Xaa at posi) [Peptide 216]",3.75
